These results are taken from article PMC4368798, “Protein-Binding RNA Aptamers Affect Molecular Interactions Distantly from Their Binding Sites”.

Series [1] deals with T1, pro-uPA wild type;uPAR (Homo sapiens;Homo sapiens, UniProt P00749;Q03405 21-431;23-305, |). Briefly: SPR; 100 nM aptamer on captured pro-uPA:uPAR; SPR: HBS (20 mM HEPES, 140 mM NaCl, pH 7.4), 2 mM MgCl2, 0.1% BSA, 0.005% Tween 20, temperature not stated; SAXS: HBS, 2 mM MgCl2, 25 C. Conditions: protein: recombinant;recombinant; tags: ;; copies: 1;1. Background: In SPR one partner is held on a chip, and binding of the other changes the refractive index at the surface.

In series [2] the target is T2, pro-uPA wild type (Homo sapiens, UniProt P00749 21-431). Description: competition, 125I-pro-uPA cell binding; U937 cells, 1 h, 4 C; effect lost on prolonged incubation; SPR: HBS (20 mM HEPES, 140 mM NaCl, pH 7.4), 2 mM MgCl2, 0.1% BSA, 0.005% Tween 20, temperature not stated; SAXS: HBS, 2 mM MgCl2, 25 C. Conditions: protein: recombinant.
Series [3] deals with T3, GFD of uPA (Homo sapiens, UniProt P00749 24-63).
T3 chain: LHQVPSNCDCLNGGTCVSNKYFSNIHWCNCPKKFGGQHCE
Briefly: SPR competition; 50 nM aptamer; no inhibition of GFD binding to uPAR; SPR: HBS (20 mM HEPES, 140 mM NaCl, pH 7.4), 2 mM MgCl2, 0.1% BSA, 0.005% Tween 20, temperature not stated; SAXS: HBS, 2 mM MgCl2, 25 C. The conditions noted are these: protein: recombinant; 79 nt.

The target in series [4] is T2, pro-uPA wild type. Description: SPR competition; inhibition of 4 nM pro-uPA binding to immobilized uPAR; SPR: HBS (20 mM HEPES, 140 mM NaCl, pH 7.4), 2 mM MgCl2, 0.1% BSA, 0.005% Tween 20, temperature not stated; SAXS: HBS, 2 mM MgCl2, 25 C. Conditions: protein: recombinant; 79 nt.
The target of series [5] is pro-uPA R391/231A (Homo sapiens, UniProt P00749 21-431, R411A). Briefly: SPR competition; still inhibits uPAR binding (data not shown); SPR: HBS (20 mM HEPES, 140 mM NaCl, pH 7.4), 2 mM MgCl2, 0.1% BSA, 0.005% Tween 20, temperature not stated; SAXS: HBS, 2 mM MgCl2, 25 C. Conditions: protein: recombinant; 79 nt.
Series [6] concerns the target pro-uPA Y284/127A (Homo sapiens, UniProt P00749 21-431, Y304A). The series is described as above. Conditions: protein: recombinant; 79 nt.
Series [7] has as its target ATF of uPA (UniProt P00749 21-151). Description: SPR competition; inhibition of 4 nM ATF binding to immobilized uPAR; SPR: HBS (20 mM HEPES, 140 mM NaCl, pH 7.4), 2 mM MgCl2, 0.1% BSA, 0.005% Tween 20, temperature not stated; SAXS: HBS, 2 mM MgCl2, 25 C. The conditions noted are these: protein: commercial; 79 nt.
Series [8] has as its target T1, pro-uPA wild type;uPAR. Description: SPR competition; 200 nM control RNA; no significant effect on vitronectin binding; SPR: HBS (20 mM HEPES, 140 mM NaCl, pH 7.4), 2 mM MgCl2, 0.1% BSA, 0.005% Tween 20, temperature not stated; SAXS: HBS, 2 mM MgCl2, 25 C. The conditions noted are these: protein: recombinant;recombinant; tags: ;; copies: 1;1.
The target of series [9] is T2, pro-uPA wild type. Description: SPR competition; up to 200 nM control RNA; no effect on pro-uPA binding to LRP-1A; SPR: HBS (20 mM HEPES, 140 mM NaCl, pH 7.4), 2 mM MgCl2, 0.1% BSA, 0.005% Tween 20, temperature not stated; SAXS: HBS, 2 mM MgCl2, 25 C. The conditions noted are these: protein: recombinant.

T1 sequence (Q03405 23-305, chain 2 of 2, other chains not shown): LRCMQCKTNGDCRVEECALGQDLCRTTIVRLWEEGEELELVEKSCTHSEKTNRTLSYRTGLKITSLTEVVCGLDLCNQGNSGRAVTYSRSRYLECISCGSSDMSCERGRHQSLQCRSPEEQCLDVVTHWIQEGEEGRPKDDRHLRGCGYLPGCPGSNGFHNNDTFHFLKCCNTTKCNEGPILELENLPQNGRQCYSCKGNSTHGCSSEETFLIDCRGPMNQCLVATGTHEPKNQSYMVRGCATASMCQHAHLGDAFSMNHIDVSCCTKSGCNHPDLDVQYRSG

B1: upanap-126 (XNA)
RNA: GGGGCCACCAACGACAUUCAUUCGCACGCUGUGUGGGGAUUAGUCCCGAUGUUGUUGAUAUAAAUAGUGCCCAUGGAUC
modifications: 2'-fluoro pyrimidines (2'-F-C, 2'-F-U)
One may read the IC50 as the concentration at which inhibition is half-maximal. As for B1, in series [1], the binding result is given as “binds”. For the same molecule, the IC50 in series [2] was around 500 nM.

B2: upanap-12 (XNA)
RNA: GGGGCCACCAACGACAUUUGCGACUGUUAUAACCUAACAGCGACGUAAAGAUAGUUGAUAUAAAUAGUGCCCAUGGAUC
modifications: 2'-fluoro pyrimidines (2'-F-C, 2'-F-U)
Take B2: the figures for the binding result in series [3], in [5] and in series [6] were “no binding”, “binds” and “binds”, respectively. Further, the IC50 in series [4] turned out to be 2.2 ± 0.1 nM; in series [7] it was 1.8 ± 0.2 nM.

B3: control RNA (XNA)
RNA: GGGGCCACCAACGACAUUAACUCACGUUGCAACUAAUACGCUGAGUGGAAACCGUUGAUAUAAAUAGUGCCCAUGGAUC
modifications: 2'-fluoro pyrimidines (2'-F-C, 2'-F-U)
B3: the binding result in series [8] and in series [9] was “no binding” throughout.
